Target: T1, Extra Domain-A (ED-A) isoform of fibronectin in bone marrow biopsies of AML patients (human, UniProt P02751 1722-1811, limits assumed)
T1 construct: The antigen was not used as an isolated protein; It is the native protein in patient tissue sections; also called A-FN; EDA domain of fibronectin
Test: immunohistochemistry, bone marrow biopsies of two patients with extramedullary AML, biotinylated SIP 2 ug/ml
Protocol: For immunohistochemistry, biotinylated antibodies were used in small immunoprotein format (SIP) under identical conditions (2 μg/ml). Aliquots were prepared from a single batch of antibodies, frozen and used only once to ensure reproducibility of immunohistochemical stainings. Frozen tissue samples were stored at −80° C. Sections of 10 μm thickness were fixed in chilled acetone, rehydrated in TBS buffer (50 mM Tris, 100 mM NaCl, 0.001% Aprotinin, pH 7.4) and blocked with 20% fetal calf serum in TBS. The antibodies were added onto the sections in a final concentration of 2 μg/mL in 3% bovine serum albumin (BSA)/TBS solution and incubated for one hour. After washing in TBS, bound antibodies were detected with streptavidin-biotinylated alkaline phosphatase complex (Biospa, Milan, Italy) in TBS 3% BSA+2 mM MgCl₂. The Fast Red substrate (Sigma) was used for detection of phosphatase activity. Sections were counterstained with Gill's hematoxylin No. 2 (Sigma) and mounted with Glycergel mounting medium (Dako, Glostrup, Denmark).

T1 sequence (P02751 1722-1811 limits assumed): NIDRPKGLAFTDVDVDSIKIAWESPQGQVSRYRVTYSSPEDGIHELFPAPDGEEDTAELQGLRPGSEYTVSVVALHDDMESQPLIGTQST

B1: F8-SIP (V5L/K18R) (antibody)
chain: EVQLLESGGGLVQPGGSLRLSCAASGFTFSLFTMSWVRQAPGKGLEWVSAISGSGGSTYYADSVKGRFTISRDNSKNTLYLQMNSLRAEDTAVYYCAKSTHLYLFDYWGQGTLVTVSSGGGGSGGGSGGGGGEIVLTQSPGTLSLSPGERATLSCRASQSVSMPFLAWYQQKPGQAPRLLIYGASSRATGIPDRFSGSGSGTDFTLTISRLEPEDFAVYYCQQMRGRPPTFGQGTKVEIKSGGSGGPRAAPEVYAFATPEWPGSRDKRTLACLIQNFMPEDISVQWLHNEVQLPDARHSTTQPRKTKGSGFFVFSRLEVTRAEWEQKDEFICRAVHEAASPSQTVQRAVSVNPESSRRGGC
modifications: biotinylated (sites not given)
notes: Human monoclonal mini-immunoglobulin (small immunoprotein, SIP); It was used biotinylated at 2 ug/ml on tissue sections; also called F8 (V5L/K18R)
binding result: binds

From patent US20120121506A1 (PHILOGEN S P A, published 2012)
